Test results as given in patent US20240294651A1 (KYMAB, published 2024).

B1: CL-148729 (antibody, human IgG4 S228P, lambda, V domains shown)
VH: AVQLVESGGGLVQPGGSLKLSCAASGFTFSGSTMHWVRQASGRGLEWVGRIRSKADSYATAYSASVKGRFTISRDDSKKMAYLQMNSLKTEDMAVYYCTRSGDYWGQGTLVTVSS
VL: QSVLTQPPSVSAAPGQKVTISCSGSSSNIGKNYVAWYQQLPGTAPKLLIYDTNKRPSGIPDRFSGSKSGTSATLDITGLQTGDEADYYCGTWDISLSVGWLFGGGTKVTVLG
notes: Tested in human IgG4-PE format
B2: CL-82658 (antibody, human IgG4 S228P, kappa, V domains shown)
VH: QVQLVESGGGVVQPGRSLRLSCAASGFSFSSYGMHWVRQAPGKGLEWVAVISYDGSNKYYADSVKGRFTISRDNSKNTLYLQMNSLRGEDTAVYYCSKGSLTPRRGYYYSYGMDVWGQGTTVTVSS
VL: DIQMTQSPSSLSASVGDRVTITCRASQGIRNDLSWYQQKPGKAPKRLIYAASSLQSGVPSRFSGSGSGTEFTLTISSLQPEDFATYYCLQHNGYPFTFGPGTKVDIKR
notes: Tested in human IgG4-PE format; also called CL-82658 (IgG4-PE format)
B3: CL-82558 (antibody, human IgG4 S228P, kappa, V domains shown)
VH: QVQLQESGPGLVKPSQTLSLTCTVSGGSISSGGYYWSWIRQVPGKGLEWIGYISYSGNTFYSPSLKSRVTISVDTSENKFSLRLTSVTAADTAVYFCARDRRIPMLRGVKGYYYGLDVWGQGTTVTVSS
VL: DIVMTQSPLSLPVIPGEPASISCRSSQSLLHRNGYKYLDWYLQKPGQSPQLLIYLGSNRASGVPARFSGSGSGTDFTLKISRVEAEDVGVYYCMQALQTPWTFGQGTKVEIKR
notes: Tested in human IgG4-PE format; also called CL-82558 (IgG4-PE format)
B4: Anti-CXCR7 mAb #11G8 (R&D Systems) (antibody, V domains shown)
VH: EVKLVESGGDLVQPGGSLKLSCATSGFTFSDYYMFWVRQTPEKRLEWVAYITNGGDRSYYSDTVTGRFIISRDNAKNTLYLQMSRLKSEDTAMYYCARQGNWAAWFVYWGQGTLVTVSA
VL: DVLMTQTPLSLPVSLGDQASISCRSSHYIVHSDGNTYLEWYLQKPGQSPKLLIYKVSNRFSGVPDRFSGSGSGTDFTLKISRVEAEDLGIYYCFQGSHVPLTFGAGTKLELKR

Experiments:
[1] = biological target: T1, human CXCR4 (cell-expressed) (human, UniProt P61073 1-352); assay: cell-based or functional assay
[2] = biological target: T1, human CXCR4 (cell-expressed); assay: cell-based or functional assay; remark: listed apart in the source
cynomolgus CXCR4 [3] = biological target: T2, cynomolgus CXCR4 (cynomolgus monkey, UniProt Q28474 1-352); assay: flow cytometry on CHO-S cells expressing cynomolgus CXCR4, anti-human Alexa Fluor 647 secondary antibody, GeoMean (647 nm)
T2 construct: also called cyno CXCR4; cynomolgus monkey CXCR4
Procedure: (§1) Cynomolgus monkey CXCR4 expressing CHO-S cells were plated at 100 uL/well of cells at 1 million of cells/mL (0.1 million of cells/well) into a 96 well V-bottom plate (Greiner). Plates were centrifuged at 300×g for 3 min at 4° C. and supernatant discarded. […] Primary antibody dilutions were added to cells (50 μL/well) and cell pellets resuspended by pipetting. Plates was incubated for 1 h at 4° C. 100 μL/well of PBS, was added and plates centrifuged at 300×g for 3 min at 4° C. and supernatant discarded. This step was repeated twice. […] Cells were resuspended by pipetting. Plates were incubated for 1 h at 4° C. 100 μL/well PBS, was added and plates centrifuged at 300×g for 3 min at 4° C. and supernatant discarded. This step was repeated twice. Finally, cells were resuspended in 100 μL/well of PBS and analysed on CytoFLEX (Beckman Coulter).
(§2) Binding of antibodies to cynomolgus CXCR4 expressed on CHO-S cells was analysed by gating the main cell population using forward and side scatter (Flow Jo, Flow Jo LLC) to allow for doublet discrimination. […] EC₅₀ values were calculated by transforming the data and fitting a 4-parameter logistic regression curve to each antibody titration.

[4] = biological target: T1, human CXCR4 (cell-expressed); assay: cell-based or functional assay; remark: listed apart in the source
cynomolgus CXCR4 [5] = biological target: T2, cynomolgus CXCR4; assay: cell-based or functional assay
[6] = biological target: T1, human CXCR4 (cell-expressed); assay: cell-based or functional assay; remark: listed apart in the source
[7] = biological target: T1, human CXCR4 (cell-expressed); assay: cell-based or functional assay; remark: listed apart in the source
[8] = biological target: T1, human CXCR4 (cell-expressed); assay: cell-based or functional assay; remark: listed apart in the source
[9] = biological target: T1, human CXCR4 (cell-expressed); assay: cell-based or functional assay; remark: listed apart in the source
cynomolgus CXCR4 [10] = biological target: T2, cynomolgus CXCR4; assay: flow cytometry on CHO-S cells expressing cynomolgus CXCR4
Procedure: as §1, §2

[11] = biological target: T3, terbium-labelled SNAP-CXCR4 on HEK-293 cells (Cisbio C1TT1CXCR4) (human, UniProt P61072 1-352 (Pan troglodytes entry), terbium label on the SNAP tag); assay: TR-FRET (Tag-lite) competition with AlexaFluor 647-CXCL12 on terbium-labelled SNAP-CXCR4 HEK-293 cells
T3 construct: Bought assay-ready cells; also called CXCR4 expressing cells; not shown: SNAP tag

human CXCR7 [12] = biological target: T4, human CXCR7 (human, UniProt P25106 1-362); assay: flow cytometry on CHO-S cells expressing human CXCR7, Alexa Fluor 647 secondary antibody, GeoMean (647 nm)
T4 construct: Expressed on CHO-S cells
Procedure: CXCR7 expressing CHO-S cells were plated at 100 μL/well of cells at 1 million of cells/mL (0.1 million of cells/well) into a 96 well V-bottom plate (Greiner). Plates were centrifuged at 300×g for 3 min at 4° C. and supernatant discarded. […] Primary antibody dilutions were added to cells (100 μL/well) and cell pellets resuspended by pipetting. Plate was incubated for 1 h at 4° C. 100 μL/well of PBS, was added and plates centrifuged at 300×g for 3 min at 4° C. and supernatant discarded. This step was repeated twice. […] Cells were resuspended by pipetting. Plate was incubated for 1 h at 4° C. 100 μL/well of PBS, was added and plates centrifuged at 300×g for 3 min at 4° C. and supernatant discarded. This step was repeated twice. Finally, cells were resuspended in 100 μL/well of PBS and analysed on CytoFLEX (Beckman Coulter).
Binding of antibodies to CXCR7 expressed on CHO-S cells was analysed by gating the main cell population using forward and side scatter (Flow Jo, Flow Jo LLC) to allow for doublet discrimination.

CXCR4 StaR nanodiscs [13] = biological target: T5, CXCR4 StaR nanodiscs; assay: SPR (Biacore T200), IgG4-PE antibody captured by anti-IgG on CM5, CXCR4 StaR nanodiscs at 250 nM as analyte, 25 C, 1:1 model; N = 1
T5 construct: Purified receptor in lipid-protein nanodiscs; also called StaR CXCR4; thermostabilised CXCR4
Procedure: (§3) Anti-IgG antibodies were immobilised on chip CM5 (GE Healthcare) by amine coupling. […] A channel with no anti-CXCR4 antibodies captured was used as a reference. […] The blank-subtracted sensorgrams were fitted to the 1:1 interaction model using the Biacore T200 evaluation software. The assay was run at 25° C. using 0.01 M HEPES pH 7.4, 0.15 M NaCl as running buffer.

CXCR4 StaR nanodiscs [14] = biological target: T5, CXCR4 StaR nanodiscs; assay: SPR (Biacore T200), IgG4-PE antibody captured by anti-IgG on CM5, CXCR4 StaR nanodiscs at 250 nM as analyte, 25 C, 1:1 model; N = 2
Procedure: as §3

human CXCR7 [15] = biological target: T4, human CXCR7; assay: flow cytometry on CHO-S cells expressing human CXCR7, anti-mouse Alexa Fluor 647 secondary antibody, GeoMean (647 nm)

T1 sequence (P61073 whole entry): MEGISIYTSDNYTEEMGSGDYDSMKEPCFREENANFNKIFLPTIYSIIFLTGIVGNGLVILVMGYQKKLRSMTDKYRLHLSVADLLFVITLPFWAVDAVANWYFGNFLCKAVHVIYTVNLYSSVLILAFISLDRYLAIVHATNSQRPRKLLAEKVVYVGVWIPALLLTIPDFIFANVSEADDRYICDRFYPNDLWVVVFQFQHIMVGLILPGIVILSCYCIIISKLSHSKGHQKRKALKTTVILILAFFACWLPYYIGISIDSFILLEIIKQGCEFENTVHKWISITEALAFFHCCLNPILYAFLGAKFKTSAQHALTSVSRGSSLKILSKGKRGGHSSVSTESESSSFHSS
T3 sequence (P61072 whole entry): as the sequence (P61073 whole entry) above
T4 sequence (P25106 whole entry): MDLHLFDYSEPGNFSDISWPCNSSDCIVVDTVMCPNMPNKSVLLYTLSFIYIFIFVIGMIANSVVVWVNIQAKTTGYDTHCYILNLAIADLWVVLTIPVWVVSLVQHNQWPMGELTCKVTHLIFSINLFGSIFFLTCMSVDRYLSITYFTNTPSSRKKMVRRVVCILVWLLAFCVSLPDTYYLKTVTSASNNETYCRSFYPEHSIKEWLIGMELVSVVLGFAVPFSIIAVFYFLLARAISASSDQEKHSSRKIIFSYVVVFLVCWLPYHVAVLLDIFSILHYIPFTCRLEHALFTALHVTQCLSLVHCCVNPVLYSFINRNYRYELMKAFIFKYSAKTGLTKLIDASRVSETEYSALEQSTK
T2 sequence (Q28474 whole entry): as the sequence (P61073 whole entry) above, with M24I, N35H, K38R, R146K, N176S counted along it

Binder | % Max Inhibition, cAMP HTRF assay, CXCR4 BacMam HEK-293 cells [1] | IC50, cAMP HTRF assay, CXCR4 BacMam HEK-293 cells, 5.5 nM CXCL12 [1] | % Max Inhibition, beta-arrestin reporter assay, Tango CXCR4-bla U2OS cells [2] | IC50, beta-arrestin reporter assay, Tango CXCR4-bla U2OS cells, 30 nM CXCL12 [2] | Max Signal (Total Overlap Object Area), internalisation on Ramos cells, live-cell imaging [4] | % Maximum Inhibition, cAMP HTRF assay, cyno CXCR4 BacMam HEK-293 cells (cynomolgus CXCR4 [5]) | IC50, cAMP HTRF assay, cyno CXCR4 BacMam HEK-293 cells (cynomolgus CXCR4 [5]) | % effect (remaining % of CXCL12 response), DMR assay, human T-cells [6] | IC50, label-free DMR assay, isolated human T-cells, EC80 CXCL12 [6] | IC50 n = 1, Jurkat chemotaxis towards 30 nM CXCL12 (IncuCyte) [7] | IC50 n = 2, Jurkat chemotaxis towards 30 nM CXCL12 (IncuCyte) [7] | IC50 n = 3, Jurkat chemotaxis towards 30 nM CXCL12 (IncuCyte) [7] | Mean IC50, Jurkat chemotaxis towards 30 nM CXCL12 (IncuCyte) [7] | % of max migration at 120 nM Ab, primary naïve T-cell trans-well migration [8] | IC50 of antibody in presence of 30 nM CXCL12, human T-cell transwell chemotaxis [9] | EC50 (cynomolgus CXCR4 [10]) | % Max Inhibition [11] | IC50 [11] | binding result (human CXCR7 [12]) | Kd (CXCR4 StaR nanodiscs [13]) | also measured
B1 | 114% | 6 nM | 99.6% | 0.11 nM | – | – | – | – | – | – | – | – | – | – | – | – | – | – | – | – | binding result (cynomolgus CXCR4 [3]): no binding (tested: log(M) about -6.9 (about 1.2e-7 M))
B2 | 98% | 23 nM | 100% | 0.35 nM | 18900 µm^2 per image | 80% | 1 nM | -0.6% | 1.54 nM | 0.22 nM | 0.31 nM | 0.21 nM | 0.25 nM | -2.08% | 0.18 not printed (nM assumed) | 4.2 nM | 100% | 1.04 nM | no binding (tested: log(M) about -6.9 (about 1.2e-7 M)) | 9.6 nM | IC50, primary naïve T-cell trans-well migration [8]: 0.99 nM; koff (CXCR4 StaR nanodiscs [13]): 0.0005 s⁻¹; kon (CXCR4 StaR nanodiscs [13]): 52000 M⁻¹ s⁻¹
B3 | 94% | 29 nM | 99.5% | 0.07 nM | 23900 µm^2 per image | 83% | 1.3 nM | 4.3% | 1.72 nM | 0.72 nM | 0.94 nM | 0.71 nM | 0.79 nM | 6.34% | 0.14 not printed (nM assumed) | 1.1 nM | 101% | 0.57 nM | no binding (tested: log(M) about -6.9 (about 1.2e-7 M)) | 3.9 nM | koff (CXCR4 StaR nanodiscs [13]): 0.00047 s⁻¹; kon (CXCR4 StaR nanodiscs [13]): 120000 M⁻¹ s⁻¹; Kd (CXCR4 StaR nanodiscs [14]): 1.7 nM; koff (CXCR4 StaR nanodiscs [14]): 0.00013 s⁻¹; kon (CXCR4 StaR nanodiscs [14]): 77000 M⁻¹ s⁻¹
B4 | – | – | – | – | – | – | – | – | – | – | – | – | – | – | – | – | – | – | – | – | EC50 (read off the curve) (human CXCR7 [15]): ~10 nM
